Test system: Rho Y80C (Escherichia coli)
Test: EMSA
Conditions: 37 C, 1 mM ATP, 25 mM Tris-Cl pH 8.0, 50 mM KCl, 5 mM MgCl2, 1 mM DTT, 37 C (or 4 C), 15 min, 0.8% agarose 0.5x TBE, 5 nM DNA

Substance | binding signal (fold weaker than WT) | Kd (5 mM Mg2+)
pBR322 | 7 | –
3.5 kb linear dsDNA | – | 180 nM

From PMC12133298
